One data set concerns HeLa cells. In words: Nuclear translocation of EGFP-Smad2. The class given is cell-based. The note with it: HeLa cells, PI(4,5)P2 depletion, TGF-β 10 ng/ml for 1 h. Here is the method: (§1) Two separate gels were used to accommodate all mutants. An empty vector transfection (vehicle) was used for a negative control for each gel. Glyceraldehyde 3-phosphate dehydrogenase (GAPDH) was used as a gel loading control. Data in A and B are quantified in Fig. S3A. C, TGF-β stimulated (10 ng/ml for 1 h) nuclear translocation of mouse EGFP-WT, -K420A, -W422A, -E425K, -Y426A, and -R427A/R428A transfected into HeLa cells whose endogenous Smad2 was suppressed by siRNA. For Smad2-WT, the effect of PI(4,5)P2 depletion was measured. Arrows indicate nuclear accumulation of EGFP-WT and EGFP-E425K. Scale bars indicate 10 μm. D, quantification of (C). (Inuc/Icyto) was calculated from total nuclear and cytosolic fluorescence intensity values. Blank and black bars indicate values before and after TGF-β stimulation. Error bars indicate S.D. values from >3 measurements (n = 10). E, Smad2 transcriptional activity measured by the luciferase assay. Blank and black bars indicate values before and after TGF-β stimulation. Error bars indicate S.D. values from >3 measurements (n = 10).
The ratio of nuclear to cytoplasmic protein was calculated from the fluorescence intensity of nucleus (Inuc) and the cytoplasm (Fcyto) in cross-section images of cells using the line profile function of Image-Pro Plus software (Media Cybernetics). Briefly, at least five different lines were drawn across the cross-sectional image of each cell and the average Inuc and ICyto values were calculated along the lines. Typically, more than ten cell images were analyzed for each data set to determine the average and SD values.

For data set [1], the system named is Smad2 transcriptional activity. In words: Dual luciferase reporter assay for Smad2 transcriptional activity. The class given is cell-based. Here is the method: as §1
HeLa cells were plated on 6-well plates at the density of ∼1.5 × 10^5 and treated with siRNA as described above. The reporter gene containing three TGF-β/activin response element (ARE) coupled with the luciferase gene (pGL2 3ARE-Lux: Addgene) was used for enhanced activity ([55]). On translocation into the nucleus, receptor-activated Smad2 associates with the DNA-binding protein FAST1 to form a transcriptional complex on the ARE of the Mix.2 promoter. After 24 h, the cell media were replaced with fresh media and cells were cotransfected with 375 ng pGL2 3ARE-Lux experimental vector, 37.5 ng pGL4.73[hRluc/SV40] internal control vector (Promega), 337.5 ng FAST1, and 750 ng of pcDNA 3.1 plasmid harboring Smad2 WT or mutant using the jetPRIME transfection system (Polyplus transfection) according to the manufacturer's protocols. After 24 h of transfection, cells were placed in fresh media and stimulated with 10 ng/ml TGF-β for 48 h. Then the cells were washed with phosphate buffer saline, and the dual luciferase reporter assay was performed according to the manufacturer's protocols (Promega). All 3ARE-Luc activity values were normalized using the pGL4.73[hRluc/SV40] values as a reference.

B1: Smad2 WT: bacterially expressed full-length Smad2 wild-type (protein)
chain: MSSILPFTPPVVKRLLGWKKSAGGSGGAGGGEQNGQEEKWCEKAVKSLVKKLKKTGRLDELEKAITTQNCNTKCVTIPSTCSEIWGLSTANTVDQWDTTGLYSFSEQTRSLDGRLQVSHRKGLPHVIYCRLWRWPDLHSHHELKAIENCEYAFNLKKDEVCVNPYHYQRVETPVLPPVLVPRHTEILTELPPLDDYTHSIPENTNFPAGIEPQSNYIPETPPPGYISEDGETSDQQLNQSMDTGSPAELSPTTLSPVNHSLDLQPVTYSEPAFWCSIAYYELNQRVGETFHASQPSLTVDGFTDPSNSERFCLGLLSNVNRNATVEMTRRHIGRGVRLYYIGGEVFAECLSDSAIFVQSPNCNQRYGWHPATVCKIPPGCNLKIFNNQEFAALLAQSVNQGFEAVYQLTRMCTIRMSFVKGWGAEYRRQTVTSTPCWIELHLNGPLQWLDKVLTQMGSPSVRCSSMS
modifications: left off: His6, N-terminal, state not stated
notes: bacterially expressed full-length Smad2 wild-type
On to B1, for which the “nuclear transport after PI(4,5)P2 depletion” value with HeLa cells is “abrogated the nuclear transport of Smad2 WT”. The “TGF-β-induced Smad2 transcriptional activity after PI(4,5)P2 depletion” value in data set [1] (HeLa cells, PI(4,5)P2 depletion) is given as “abrogated TGF-β-induced Smad2 transcriptional activity”. Besides, the “Smad2 transcriptional activity after TGF-β stimulation” value in data set [1] (Smad2-suppressed HeLa cells, luciferase, 10 ng/ml TGF-β for 48 h) was “fully restored Smad2 transcriptional activity”.

The values are drawn from publication PMC8567202, “Phosphoinositide-binding activity of Smad2 is essential for its function in TGF-β signaling” (The Journal of Biological Chemistry, 2021).
